Assay results from publication PMC12192291, “Ancestral [Fe-S] biogenesis system SMS has a unique mechanism of cluster assembly and sulfur utilization” (PLOS Biology, 2025).

T1: SmsC (Methanocaldococcus jannaschii, UniProt Q60350)
T1 sequence (Q60350 1-250): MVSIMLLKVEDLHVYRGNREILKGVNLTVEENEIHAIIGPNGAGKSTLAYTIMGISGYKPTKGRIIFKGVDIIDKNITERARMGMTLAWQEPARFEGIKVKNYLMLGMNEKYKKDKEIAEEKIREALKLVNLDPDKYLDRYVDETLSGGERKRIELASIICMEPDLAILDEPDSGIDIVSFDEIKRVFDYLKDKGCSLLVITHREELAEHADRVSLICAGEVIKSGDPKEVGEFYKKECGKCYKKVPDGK

B1: SmsC from Methanocaldococcus jannaschii (enzyme)
chain: T1 sequence (Q60350 1-250)
notes: SmsC, Methanocaldococcus jannaschii, ABC ATPase subunit of the SMS system; Monomer in solution without nucleotide; two copies in SmsC2B2; In the cryo-EM sample one of the two copies carries a [4Fe-4S] cluster; also called apo-SmsC; source: E. coli MG1655(DE3) (FBE682), purified (HisTrap, TEV protease, Ni-NTA, SEC); not shown: His6, N-terminal, cleaved
B2: SmsB from Methanocaldococcus jannaschii (natural protein)
chain: MSIKEELMEIIEAIKYTSEKPEEIVHGKGPRIIVKESRIIDVQGDEGIILEGKEEDGKIKAKIIVKKGYKFKYPIHMCFGITEENISQIIDVEIILEEDSSISLMSHCSFPKGKGIKHIMNGIIKIGKNAKFSYNEFHYHGMDGDILVKPTVKVEIDEGGIYISNFTLTKGRIGTLDIEQEIIAKKDAIIDITTRTYAIKEDVVKVNEVVKLNGENAKCIIKSRGAAMDNSKISLKLKIEGNAPYSKGHIDCAEIVKGNAEVESIPIVVVRDDKARITHEAAIGSVDKKQLETLMAKGLDEDEATEIIVKGMIGDL
notes: SmsB, Methanocaldococcus jannaschii, subunit of the SMS system; Mainly a homodimer in solution; two copies in SmsC2B2; also called SmsB2; source: E. coli MG1655(DE3) (FBE682), purified (HisTrap, TEV protease, Ni-NTA, SEC); not shown: His6, N-terminal, cleaved

How the values were obtained:
SmsC [1] = target: T1, SmsC; assay: enzyme-coupled ATPase assay (PK/LDH) on purified protein; format: biochemical; design: gene MJ0035; SmsC alone and SmsC2B2 complex
SmsC [2] = target: T1, SmsC; assay: ligand-induced dimerization by size exclusion chromatography; blocks [Fe-S] reconstitution on SmsC2B2; format: binding; design: gene MJ0035; SmsC, His-tag removed
[3] = target: the molecule itself; assay: cryo-EM structure; chemically reconstituted [4Fe-4S]-bound SmsC2B2, prepared under anoxic conditions and quickly vitrified (9H78, EMD-51913)
[4] = target: B2; assay: SEC; calibrated Hiload 600 Superdex 200, 50 mM Tris-HCl pH 7.8, 100 mM NaCl, 1 mM DTT; no nucleotide; for the complex SmsB2 and SmsC were mixed in molar amounts corresponding to SmsC2B2 and incubated overnight; settings: both partners purified
[5] = target: the molecule itself; assay: as above

Molecule: Nc1ncnc2c1ncn2[C@@H]1O[C@H](COP(=O)(O)OP(=O)(O)OP(=O)(O)O)[C@@H](O)[C@H]1O [ATP]
enzyme-coupled ATPase assay (PK/LDH) on purified protein (SmsC [1]): 0.98 min⁻¹ (kcat)

Molecule: Nc1ncnc2c1ncn2[C@@H]1O[C@H](CO[P@](=O)(O)O[P@](=O)(O)CP(=O)(O)O)[C@@H](O)[C@H]1O [AMP-PCP]
ligand-induced dimerization by size exclusion chromatography; blocks [Fe-S] reco (SmsC [2]): Incubation of SmsC with excess of adenosine-5′-[(β,γ)-methyleno]triphosphate (AMP-PCP) led to SmsC dimer formation

Molecule: B1
binding result [3]: binds | binding result [4]: binds

Molecule: B2
stoichiometry N [5]: 2
